According to patent US20210261665A1 (TAYU HUAXIA BIOTECH MEDICAL GROUP, published 2021):
Substitutions are numbered along the chain they refer to. Numbers in names are those of the source. Values belong to the binder of their own block, whether it stands above or below them.

Key:
Biotin-hPD-1 [1] = biological target: T1, Biotin-hPD-1 (human, UniProt Q15116 25-167, limits assumed, biotin label, site not stated); assay: competitive ELISA: competitive Ab 15 µg/ml with Biotin-hPD-1; coating Ab Pembrolizumab 1 µg/ml
Method: (§1) A serial dilution of competing antibodies and Biotin-hPD-1 were added to ELISA plates pre-coated with 1 μg/ml a test antibody. HRP conjugated streptavidin was then added, followed by the addition of substrate TMB and quantification with a SpectraMax Plus 384 Microplate Reader at 450 nm wavelength.

Biotin-hPD-1 [2] = biological target: T1, Biotin-hPD-1; assay: competitive ELISA: competitive Ab 15 µg/ml with Biotin-hPD-1; coating Ab TY101-04-T3-05 1 µg/ml
Method: as §1

[3] = biological target: hPD-1 protein (ELISA coat) (human, UniProt Q15116 25-167, limits assumed); assay: ELISA against hPD-1 ECD-Fc protein (plate coat)
Method: (§2) The bindings of the antibodies to hPD-1 and the cross-reactivity to mPD-1 proteins were tested by ELISA. A serial dilution of test antibodies were added to ELISA plates pre-coated with 1 μg/ml hPD-1 or mPD-1. HRP conjugated goat anti-human IgG or goat anti-mouse IgG antibody was then added, followed by the addition of substrate Tetramethylbenzidine (TMB) and quantification with a SpectraMax Plus 384 Microplate Reader (Molecular Device, LLC., Sunnyvale, Calif.) at 450 nm wavelength.

Biotin-hPD-1 [4] = biological target: T1, Biotin-hPD-1; assay: competitive ELISA: competitive Ab 15 µg/ml with Biotin-hPD-1; coating Ab Nivolumab 1 µg/ml
Method: as §1

[5] = biological target: T2, mPD-1 protein (ELISA coat) (mouse, UniProt Q02242 25-167, limits assumed); assay: ELISA against mPD-1 ECD-Fc protein (plate coat)
T2 sequence (looked up): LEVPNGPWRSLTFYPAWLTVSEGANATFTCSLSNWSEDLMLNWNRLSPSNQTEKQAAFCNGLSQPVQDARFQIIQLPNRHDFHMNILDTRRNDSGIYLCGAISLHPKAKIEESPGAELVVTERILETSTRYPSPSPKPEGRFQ
Method: as §2

Biotin-hPD-1 [6] = biological target: T1, Biotin-hPD-1; assay: competitive ELISA: competitive Ab 15 µg/ml with Biotin-hPD-1; coating Ab TY101-4G1 1 µg/ml
Method: as §1

human PD-1 on cells [7] = biological target: T3, human PD-1 on cells (human, UniProt Q15116 25-288); assay: cell based RBA (flow cytometry): blocking of Biotin-hPD-L1 binding to CHOK1-hPD-1 cells
T3 construct: whole, on cells; also called hPD-1; CHO/hPD-1
Method: (§3) The cells were then incubated with Alexa 488 labeled Streptavidin and analyzed using a FACSCanto II.

Human PD-1 ECD protein [8] = biological target: T4, Human PD-1 ECD protein (human, UniProt Q15116 25-170); assay: SPR, Biacore T200, hPD-1 ECD immobilised at the high level (960 RU), antibody as analyte, 1:1 fit; kd and KD printed as '*', no visible dissociation over 1500 s [lower right]
T4 construct: extracellular domain; also called hPD-1; recombinant hPD-1
Method: (§4) Human PD-1 ECD protein was immobilized on CMS sensor chip for different length of time to achieve low immobilization level (at 60 RU) in flow cell 3 and high immobilization level (960 RU) in flow cell 4. […] After signals of both the reference (flow cell 1) and the zero concentrations being subtracted from that of samples, binding kinetics was calculated using Biacore T200 evaluation software version 1.0 and a 1:1 binding model for curve fitting.

[9] = biological target: T5, cynomolgus monkey PD-1 on cells (cynomolgus monkey, UniProt B0LAJ3 25-288); assay: flow cytometry on CHOK1-cPD-1 cells
T5 construct: also called cPD-1; CHOK1-cPD-1

Biotin-hPD-1 [10] = biological target: T1, Biotin-hPD-1; assay: competitive ELISA: competitive Ab 15 µg/ml with Biotin-hPD-1; coating Ab TY101-01-09 1 µg/ml
Method: as §1

human PD-1 on cells [11] = biological target: T3, human PD-1 on cells; assay: flow cytometry on CHOK1-hPD-1 cells
Human PD-1 ECD protein [12] = biological target: T4, Human PD-1 ECD protein; assay: SPR, Biacore T200, hPD-1 ECD immobilised at the low level (60 RU), antibody as analyte, 1:1 fit [lower left]
Method: as §4

human PD-1 on cells [13] = biological target: T3, human PD-1 on cells; assay: cell based RBA (flow cytometry): blocking of Biotin-hPD-L2 binding to CHOK1-hPD-1 cells
Method: as §3

hPD-1 mIg fusion protein = biological target: T6, hPD-1 mIg fusion protein (human; mouse, UniProt Q15116 25-170); assay: SPR Biacore T100, hPD-1mIg immobilised by amine coupling, antibody as analyte
T6 construct: extracellular domain; not shown: CH2-CH3 domain of mouse IgG2a heavy chain (plasmid pmIgG)
Method: Binding affinity and kinetics determination of the humanized antibodies: The binding affinity and kinetics of the humanized PD-1 mAbs interact with hPD-1 protein was assessed with Biacore T100 (GE Healthcare Life Sciences). […] Nine different concentrations were tested for each sample. Detailed binding kinetic parameters (association rate, Ka, dissociation rate, Kd, and affinity constant, KD) can be determined by full kinetic analysis.

T6 sequence (Q15116 25-170): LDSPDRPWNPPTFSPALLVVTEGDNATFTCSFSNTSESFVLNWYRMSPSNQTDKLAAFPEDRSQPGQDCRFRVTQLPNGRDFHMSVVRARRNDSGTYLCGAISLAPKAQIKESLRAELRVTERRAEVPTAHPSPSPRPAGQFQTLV
T4 sequence (Q15116 25-170): as above
T1 sequence (Q15116 25-167 limits assumed): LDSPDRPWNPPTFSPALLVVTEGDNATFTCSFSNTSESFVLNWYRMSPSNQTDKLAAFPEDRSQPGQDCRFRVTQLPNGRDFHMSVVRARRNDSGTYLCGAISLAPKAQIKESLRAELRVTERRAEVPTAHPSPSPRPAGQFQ
T3 sequence (Q15116 25-288): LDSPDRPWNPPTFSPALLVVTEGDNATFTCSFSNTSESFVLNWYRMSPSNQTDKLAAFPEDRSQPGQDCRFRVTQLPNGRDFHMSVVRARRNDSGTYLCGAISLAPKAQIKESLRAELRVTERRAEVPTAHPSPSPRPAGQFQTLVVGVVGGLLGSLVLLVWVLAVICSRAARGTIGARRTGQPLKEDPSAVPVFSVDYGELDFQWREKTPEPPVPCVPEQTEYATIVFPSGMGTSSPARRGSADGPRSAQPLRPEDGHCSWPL
hPD-1 protein (ELISA coat), sequence (Q15116 25-167 limits assumed): as the sequence (Q15116 25-167 limits assumed) above
T5 sequence (B0LAJ3 entry or part of it limits assumed): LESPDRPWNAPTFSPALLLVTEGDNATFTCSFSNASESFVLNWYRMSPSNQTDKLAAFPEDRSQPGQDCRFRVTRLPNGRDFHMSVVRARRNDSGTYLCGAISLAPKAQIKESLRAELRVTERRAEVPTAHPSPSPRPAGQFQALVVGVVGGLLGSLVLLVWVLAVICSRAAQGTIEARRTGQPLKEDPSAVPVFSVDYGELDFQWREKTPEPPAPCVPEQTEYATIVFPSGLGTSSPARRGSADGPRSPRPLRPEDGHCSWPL

- Inhibition (%) (Biotin-hPD-1 [1]): 94%
- Inhibition (%) (Biotin-hPD-1 [2]): 95%
- EC50 [3]: 0.14 nM
- Max OD450 [3]: 3.03
- Inhibition (%) (Biotin-hPD-1 [4]): 94%
- Max OD450 [5]: 0.92
- binding result [5]: no binding (tested: 100 nM)
- Inhibition (%) (Biotin-hPD-1 [6]): 95%
- IC50 (human PD-1 on cells [7]): 1.3 nM
- Inhibition rate (human PD-1 on cells [7]): 99.5%
- kon (Human PD-1 ECD protein [8]): 210000 M⁻¹ s⁻¹
- EC50 [9]: 1.19 nM
- Max MFI [9]: 22100
- Inhibition (%) (Biotin-hPD-1 [10]): 94%
- EC50 (human PD-1 on cells [11]): 0.87 nM
- Max MFI (human PD-1 on cells [11]): 23900
- Kd (Human PD-1 ECD protein [12]): 0.132 nM
- koff (Human PD-1 ECD protein [12]): 1.89e-05 s⁻¹
- kon (Human PD-1 ECD protein [12]): 143000 M⁻¹ s⁻¹
- IC50 (human PD-1 on cells [13]): 1.52 nM
- Inhibition rate (human PD-1 on cells [13]): 95.3%
B1: TY101-04-T3-05 (antibody, V domains shown)
VH: EVQLVESGGGLVQPGGSLRLSCAASGFTFSSYTMSWVRQAPGKGLEWVSYISHGGGDTYYADSVKGRFTISRDNSKNTLYLQMNSLRAEDTAVYYCARHSGYERGYYYVMDYWGQGTLVTVSS
VL: DIQLTQSPDSLSVSLGERATINCKASESVDYYGFSFLNWFQQKPGQPPKLLIYAASNRQSGVPDRFSGSGSGTDFTLTISSLQAEDVAVYFCQQSKEVPWTFGQGTKLEIKR
notes: also called TY101 clone TY101-04-T3-05

- Kd (hPD-1 mIg fusion protein): 0.293 nM
- koff (hPD-1 mIg fusion protein): 6.15e-05 s⁻¹
- kon (hPD-1 mIg fusion protein): 210000 M⁻¹ s⁻¹
B4: Variant 1 (antibody, V domains shown)
VH: B1 VH
VL: B1 VL with Q3V, L4M, S12A, A25S, Q59E, F91Y
notes: Humanized; Constant regions not spelled out for the humanized antibodies; the chimeric parent has human IgG4-S228P and human kappa; also called mutant combination 1

- Kd (hPD-1 mIg fusion protein): 0.123 nM
- koff (hPD-1 mIg fusion protein): 3.2e-05 s⁻¹
- kon (hPD-1 mIg fusion protein): 259000 M⁻¹ s⁻¹
B5: Variant 9 (antibody, V domains shown)
VH: B1 VH with Q3K, V5L, A61P, Q115K, L118T
VL: DIQLTQSPDSLSVSLGERATINCKASESVDYYGFSFLNWFQQKPGQPPKLLIYAASNRQSGVPDRFSGSGSGTDFTLTISSLQAEDVAVYFCQQSKEVPWTFGQGTKLEIK
notes: Humanized; VH variant c, VK variant c; Constant regions not spelled out; also called mutant combination 9

- Kd (hPD-1 mIg fusion protein): 0.338 nM
- koff (hPD-1 mIg fusion protein): 6.29e-05 s⁻¹
- kon (hPD-1 mIg fusion protein): ~186000 M⁻¹ s⁻¹
B7: Variant 4 (antibody, V domains shown)
VH: B1 VH with A61P
VL: B1 VL with Q3V, L4M, S12A, A25S, Q59E, F91Y
notes: Humanized; VH variant b, VK variant a; Constant regions not spelled out; chimeric parent has human IgG4-S228P and human kappa; also called mutant combination 4

The remaining lines, values behind:

B2: Variant 5 (antibody, V domains shown)
VH: B1 VH with A61P
VL: B1 VL with Q3V, L4M, S12A, Q59E, F91Y
notes: Humanized; VH variant b, VK variant b; Constant regions not spelled out; chimeric parent has human IgG4-S228P and human kappa; also called mutant combination 5
- Kd (hPD-1 mIg fusion protein): 0.329 nM
- koff (hPD-1 mIg fusion protein): 6.94e-05 s⁻¹
- kon (hPD-1 mIg fusion protein): 211000 M⁻¹ s⁻¹

B3: Variant 7 (antibody, V domains shown)
VH: B1 VH with Q3K, V5L, A61P, Q115K, L118T
VL: B5 VL with Q3V, L4M, S12A, A25S, Q59E, F91Y
notes: Humanized; VH variant c, VK variant a; Constant regions not spelled out; also called mutant combination 7
- Kd (hPD-1 mIg fusion protein): 0.291 nM
- koff (hPD-1 mIg fusion protein): 6.48e-05 s⁻¹
- kon (hPD-1 mIg fusion protein): 218000 M⁻¹ s⁻¹

B6: Variant 6 (antibody, V domains shown)
VH: B1 VH with A61P
VL: B1 VL
notes: Humanized; VH variant b, VK variant c; Constant regions not spelled out; chimeric parent has human IgG4-S228P and human kappa; also called mutant combination 6
- Kd (hPD-1 mIg fusion protein): 0.0898 nM
- koff (hPD-1 mIg fusion protein): 2.23e-05 s⁻¹
- kon (hPD-1 mIg fusion protein): 248000 M⁻¹ s⁻¹
